# Assay results from US7364737 (Scripps Research, dated 2008).
# B1: Fab clone 19 (Fab, V domains shown)
# VH: QVKLLEESGGGLVRLAGSLRLSCAASGTTLSGYTMHWVRQAPGKGLEWVSSITGGSNFINYSDSVKGRFTISRDNAKNSLYLQMNSLTAEDTAVYYCATAPIAPPYFDHWGQGTLVTVSS
# VL: ELTQSPSSLSASVGDRVTITCRATQSVSNFLNWYQQKPGEAPTLLIYDASTSQSGVPSRFSGSGSGMDFSLTISSLQPEDLAMYYCQASINTPLFGGGTRIDMR
# notes: Human IgG1 kappa Fab made as soluble Fab in E. coli; Variable domains are identical to clone 13; also called Fab 19; RSV Fab 19
# B2: Fab clone 11 (Fab, V domains shown)
# VH: VKLLEQSGGGLVQPGGSLRLSCAVSGVTFSAYAMSWVRQAPGKGLEWVSGISGSGDSTDYADSVKGRLTISRDNSKNTLYLQMNSLRAEDTAIYYCASHLPDYWNLDYTRFFYYMDVWGKGTTVTVSS
# VL: ELTQSPGTLSLSPGERATLSCRATQSISSNYLAWYQQRPGQAPRLLIYGASNRATDIPDRFSGSGSGTDFTLTISRLEPEDFAMYYCQQYDISPYTFGQGTKLEIK
# notes: Human IgG1 kappa Fab from a pComb3 phage library, made as soluble Fab in E. coli; also called Fab 11; rsv 11H/11L
# B3: Fab clone 13 (Fab, V domains shown)
# VH: QVKLLEESGGGLVRLAGSLRLSCAASGTTLSGYTMHWVRQAPGKGLEWVSSITGGSNFINYSDSVKGRFTISRDNAKNSLYLQMNSLTAEDTAVYYCATAPIAPPYFDHWGQGTLVTVSS
# VL: ELTQSPSSLSASVGDRVTITCRATQSVSNFLNWYQQKPGEAPTLLIYDASTSQSGVPSRFSGSGSGMDFSLTISSLQPEDLAMYYCQASINTPLFGGGTRIDMR
# notes: Human IgG1 kappa Fab made as soluble Fab in E. coli; Variable domains are identical to clone 19; also called Fab 13; rsv 13H/13L
# What was measured:
# [1] = molecular target: RSV (subgroup A) F glycoprotein (respiratory syncytial virus subgroup A …, UniProt P03420 26-574); assay: cell-based or functional assay
# [2] = molecular target: T1, baculovirus-expressed FG fusion glycoprotein (respiratory syncytial virus, UniProt P03420 26-489; P03423 97-279); assay: inhibition ELISA, free FG against coated FG
# T1 construct: also called RSV FG glycoprotein; recombinant FG glycoprotein
# T1 sequence (P03420 26-489, tags or fused parts left off): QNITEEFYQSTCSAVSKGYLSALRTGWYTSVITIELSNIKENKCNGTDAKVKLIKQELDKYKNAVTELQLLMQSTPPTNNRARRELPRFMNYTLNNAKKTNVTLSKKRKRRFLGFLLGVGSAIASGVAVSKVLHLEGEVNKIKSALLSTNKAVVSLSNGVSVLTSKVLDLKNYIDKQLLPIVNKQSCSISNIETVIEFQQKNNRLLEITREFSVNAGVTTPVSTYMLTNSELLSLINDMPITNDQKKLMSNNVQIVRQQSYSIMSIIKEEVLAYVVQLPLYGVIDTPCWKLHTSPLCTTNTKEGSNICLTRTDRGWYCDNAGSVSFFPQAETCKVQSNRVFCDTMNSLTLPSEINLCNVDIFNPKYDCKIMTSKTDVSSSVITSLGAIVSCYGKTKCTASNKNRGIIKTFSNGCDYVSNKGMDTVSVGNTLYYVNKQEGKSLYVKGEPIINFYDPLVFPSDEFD
# RSV (subgroup A) F glycoprotein, sequence (P03420 26-574): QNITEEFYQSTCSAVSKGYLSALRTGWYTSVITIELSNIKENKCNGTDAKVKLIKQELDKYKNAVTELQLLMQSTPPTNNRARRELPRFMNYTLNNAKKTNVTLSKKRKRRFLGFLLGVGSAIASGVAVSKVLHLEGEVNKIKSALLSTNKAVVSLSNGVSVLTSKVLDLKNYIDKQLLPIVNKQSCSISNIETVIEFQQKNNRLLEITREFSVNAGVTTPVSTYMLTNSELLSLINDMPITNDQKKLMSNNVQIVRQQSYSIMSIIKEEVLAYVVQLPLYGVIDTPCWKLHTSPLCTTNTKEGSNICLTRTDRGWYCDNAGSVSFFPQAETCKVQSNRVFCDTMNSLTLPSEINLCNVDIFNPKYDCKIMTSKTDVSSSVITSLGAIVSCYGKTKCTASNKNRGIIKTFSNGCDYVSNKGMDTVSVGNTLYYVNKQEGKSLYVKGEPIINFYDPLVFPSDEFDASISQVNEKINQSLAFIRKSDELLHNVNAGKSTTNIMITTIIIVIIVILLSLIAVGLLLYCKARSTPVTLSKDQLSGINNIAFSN
Binder,"Concentration of Fab Needed for 60% Plaque Reduction (µg/ml), RSV; purified from lysate [1] [µg/mL]",Maximum Neutralization of RSV (Subgroup A); purified from lysate [1] [%],Ka [2] [M⁻¹]
B1,0.4,100,~1e+08
B2,1.8,88,~1e+08
B3,0.2,98,~1e+08
